Experiments:
[1] = biological target: recombinant human TNFα (rhTNFα) (human) (UniProt P01375); test: SPR (BIAcore), biotinylated rhTNFα on streptavidin chip; [Ab] 13 nM
[2] = biological target: recombinant human TNFα (rhTNFα) (human) (UniProt P01375); test: SPR (BIAcore), biotinylated rhTNFα on streptavidin chip; [Ab] 400 nM
[3] = biological target: recombinant human TNFα (rhTNFα) (human) (UniProt P01375); test: SPR (BIAcore), biotinylated rhTNFα on streptavidin chip; [Ab] 6 nM
[4] = biological target: recombinant human TNFα (rhTNFα) (human) (UniProt P01375); test: SPR (BIAcore), biotinylated rhTNFα on streptavidin chip; [Ab] 200 nM
[5] = biological target: recombinant human TNFα (rhTNFα) (human) (UniProt P01375); test: SPR (BIAcore), biotinylated rhTNFα on streptavidin chip; average over the concentrations
[6] = biological target: recombinant human TNFα (rhTNFα) (human) (UniProt P01375); test: SPR (BIAcore), biotinylated rhTNFα on streptavidin chip; [Ab] 25 nM
[7] = biological target: recombinant human TNFα (rhTNFα) (human) (UniProt P01375); test: SPR (BIAcore), summary table
[8] = biological target: recombinant human TNFα (rhTNFα) (human) (UniProt P01375); test: SPR (BIAcore), biotinylated rhTNFα on streptavidin chip; [Ab] 50 nM
[9] = biological target: recombinant human TNFα (rhTNFα) (human) (UniProt P01375); test: SPR (BIAcore), biotinylated rhTNFα on streptavidin chip; [Ab] 100 nM
[10] = biological target: recombinant human TNFα (rhTNFα) (human) (UniProt P01375); test: cell-based or functional assay
[11] = biological target: recombinant human TNFα (rhTNFα) (human) (UniProt P01375); test: SPR (BIAcore), biotinylated rhTNFα on streptavidin chip; [Ab] 3 nM

recombinant human TNFα (rhTNFα) (human), sequence (P01375 77-233 limits assumed): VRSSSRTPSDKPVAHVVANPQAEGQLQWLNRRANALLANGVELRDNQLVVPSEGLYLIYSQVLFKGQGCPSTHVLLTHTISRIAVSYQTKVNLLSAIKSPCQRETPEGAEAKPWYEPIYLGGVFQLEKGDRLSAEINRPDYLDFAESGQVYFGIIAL

MAK 195 F(ab′)2 fragment (murine anti-hTNFα mAb)
Ab, bound, RUs [1]: 708 RU | koff [1]: 3.66e-05 s⁻¹ | rhTNFα/Ab [1]: 0.78 | Ab, bound, RUs [2]: 881 RU | koff [2]: 5.38e-05 s⁻¹ | rhTNFα/Ab [2]: 1.2 | Ab, bound, RUs [3]: 433 RU | koff [3]: 7.37e-05 s⁻¹ | rhTNFα/Ab [3]: 0.47 | Ab, bound, RUs [4]: 1080 RU | koff [4]: 4.54e-05 s⁻¹ | rhTNFα/Ab [4]: 1.38 | koff [5]: 4.94e-05 s⁻¹ | Ab, bound, RUs [6]: 957 RU | koff [6]: 4.41e-05 s⁻¹ | rhTNFα/Ab [6]: 1.09 | Kd [7]: 0.46 nM | Stoichiometry [7]: 1.4 | koff [7]: 8.7e-05 s⁻¹ | kon [7]: 190000 M⁻¹ s⁻¹ | Ab, bound, RUs [8]: 1110 RU | koff [8]: 3.67e-05 s⁻¹ | rhTNFα/Ab [8]: 1.32 | Ab, bound, RUs [9]: 1140 RU | koff [9]: 3.54e-05 s⁻¹ | rhTNFα/Ab [9]: 1.39 | IC50, neutralization of TNFα-induced L929 cytotoxicity [10]: 0.062 nM | Ab, bound, RUs [11]: 231 RU | koff [11]: 6.95e-05 s⁻¹ | rhTNFα/Ab [11]: 0.26

Source: patent publication US20100040604A1
